Measured values taken from publication PMC7029000.
Values joined by “and” are separate entries in the source; they are usually repeats but may differ in a detail not shown here. Identical values can stand only once.

Key:
[1] = target: PKM2 (mouse (endogenous in primary astrocytes and striatum)) (UniProt P52480); assay: native gel or EMSA; blue native PAGE (8%, 4 °C) of digitonin lysates of primary astrocytes, immunoblot for PKM2; tetramer to dimers; cells treated with quinpirole, DASA-58, PTX, β-arrestin siRNA, pyridoxine
[2] = target: PKM2 (mouse (endogenous in primary astrocytes and striatum)) (UniProt P52480); assay: native gel or EMSA; blue native PAGE of striatum of Drd2 flox/flox and Drd2 hGFAPcKO mice after 5 mg/kg quinpirole or pyridoxine for 7 days, immunoblot for PKM2; tetramer to dimers
[3] = target: Purified recombinant PKM2 (UniProt P52480); assay: native gel or EMSA; blue native PAGE of purified recombinant PKM2 mixed with natural products (vindoline, pyridoxine and others); tetramer to dimers

Chain of PKM2, P52480 1-531 (enzyme; other documents disagree on this pair) (P52480 whole entry): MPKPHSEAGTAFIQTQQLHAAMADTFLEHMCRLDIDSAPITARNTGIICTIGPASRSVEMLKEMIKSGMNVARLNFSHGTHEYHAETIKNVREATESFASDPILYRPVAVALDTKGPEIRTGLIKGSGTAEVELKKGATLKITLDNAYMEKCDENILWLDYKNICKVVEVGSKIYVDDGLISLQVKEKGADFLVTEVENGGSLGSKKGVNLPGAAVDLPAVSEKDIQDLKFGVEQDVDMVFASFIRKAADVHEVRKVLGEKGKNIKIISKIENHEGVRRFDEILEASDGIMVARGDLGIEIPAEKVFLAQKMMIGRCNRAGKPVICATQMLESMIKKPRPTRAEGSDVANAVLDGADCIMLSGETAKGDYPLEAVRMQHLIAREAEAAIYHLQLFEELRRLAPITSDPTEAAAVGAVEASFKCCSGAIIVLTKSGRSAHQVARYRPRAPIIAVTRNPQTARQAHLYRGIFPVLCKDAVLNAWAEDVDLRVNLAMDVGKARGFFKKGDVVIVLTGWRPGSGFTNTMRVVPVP
Chain of Purified recombinant PKM2, P52480 1-531 (enzyme; other documents disagree on this pair) (P52480 whole entry): as above

Substance | stoichiometry N [1] | stoichiometry N [2] | stoichiometry N [3]
PKM2, P52480 1-531 (enzyme; other documents disagree on this pair) | 4 and 2 | 2 and 4 | –
Purified recombinant PKM2, P52480 1-531 (enzyme; other documents disagree on this pair) | – | – | 2 and 4
